Results as given in patent US20100216853.

T1: H4-15 histone H4 tail peptide
T1 chain: GRGKGGKGLGKGGAK

T2: H4-12(K5A/K12A) peptide
T2 chain: RGAGGKGLGAGA

T3: H4-12(K5X/K12A) peptide
T3 chain: RGXGGKGLGAGA

T4: H4-15(K5D/K12D) peptide
T4 chain: GRGDGGKGLGDGGAK


Experiments:
[1] = biological target: T1, H4-15 histone H4 tail peptide
H4-12(K5A/K12A) peptide = biological target: T2, H4-12(K5A/K12A) peptide
H4-12(K5X/K12A) peptide = biological target: T3, H4-12(K5X/K12A) peptide
H4-15(K5D/K12D) peptide = biological target: T4, H4-15(K5D/K12D) peptide

| Protein | Km(µM) for H4-15 [1] | V/K [1] [M⁻¹ s⁻¹] | other results |
| --- | --- | --- | --- |
| semi-synthetic p300 HAT domain E1505R (protein) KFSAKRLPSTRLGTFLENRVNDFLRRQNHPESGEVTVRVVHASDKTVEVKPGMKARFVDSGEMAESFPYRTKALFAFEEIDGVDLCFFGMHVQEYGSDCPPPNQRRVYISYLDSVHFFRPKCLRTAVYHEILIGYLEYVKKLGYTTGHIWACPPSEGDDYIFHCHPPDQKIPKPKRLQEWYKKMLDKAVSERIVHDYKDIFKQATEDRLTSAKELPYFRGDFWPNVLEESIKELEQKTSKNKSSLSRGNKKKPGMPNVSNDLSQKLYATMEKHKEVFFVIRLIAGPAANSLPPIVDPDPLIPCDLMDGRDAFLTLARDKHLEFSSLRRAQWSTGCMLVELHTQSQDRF | >1000 | 2000 | V/K decrease against wild-type [1]: V/K was decreased by 12-fold |
| semi-synthetic p300 HAT domain D1625R/D1628R double mutant (protein) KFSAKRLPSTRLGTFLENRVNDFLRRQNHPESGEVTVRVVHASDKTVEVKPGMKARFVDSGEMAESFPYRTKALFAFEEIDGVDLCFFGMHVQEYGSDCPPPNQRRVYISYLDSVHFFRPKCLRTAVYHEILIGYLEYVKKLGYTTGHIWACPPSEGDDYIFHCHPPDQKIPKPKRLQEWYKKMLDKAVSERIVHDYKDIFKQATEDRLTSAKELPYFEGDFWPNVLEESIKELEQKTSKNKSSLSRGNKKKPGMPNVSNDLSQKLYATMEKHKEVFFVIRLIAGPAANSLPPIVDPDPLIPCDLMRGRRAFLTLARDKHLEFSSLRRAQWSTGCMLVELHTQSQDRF | >1000 | 1160 | V/K difference against wild-type [1]: the 22-fold V/K difference between wild-type p300 HAT protein and the D1625R/D1628R mutant for H4-15 substrate; V/K drop against wild-type [1]: a 20-fold drop in V/K; V/K(M^-1s^-1) for D1625R/D1628R [1]: 1160 M⁻¹ s⁻¹; V/K(M^-1s^-1) for D1625R/D1628R (H4-12(K5A/K12A) peptide): 515 M⁻¹ s⁻¹; loss in V/K against wild-type (H4-12(K5A/K12A) peptide): the loss of 6-fold in V/K for neutral H4 substrates; V/K(M^-1s^-1) for D1625R/D1628R (H4-12(K5X/K12A) peptide): 738 M⁻¹ s⁻¹; loss in V/K against wild-type (H4-12(K5X/K12A) peptide): the loss of 6-fold in V/K for neutral H4 substrates; V/K(M^-1s^-1) for D1625R/D1628R (H4-15(K5D/K12D) peptide): 422 M⁻¹ s⁻¹; acetyltransferase activity against wild-type (H4-15(K5D/K12D) peptide): almost equal (within 2-fold) acetyltransferase activity |
| semi-synthetic p300 HAT domain E1505R/D1625R/D1628R triple mutant (protein) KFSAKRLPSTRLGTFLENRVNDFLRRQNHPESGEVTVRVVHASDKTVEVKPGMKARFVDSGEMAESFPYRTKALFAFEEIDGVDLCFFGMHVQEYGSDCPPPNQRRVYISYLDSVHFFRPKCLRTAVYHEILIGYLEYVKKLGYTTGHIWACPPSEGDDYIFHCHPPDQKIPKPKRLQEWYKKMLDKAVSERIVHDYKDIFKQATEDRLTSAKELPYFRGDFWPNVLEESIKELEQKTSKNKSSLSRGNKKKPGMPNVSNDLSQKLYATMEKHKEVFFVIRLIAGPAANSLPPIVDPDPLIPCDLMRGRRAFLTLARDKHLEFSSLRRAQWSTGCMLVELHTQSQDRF | >1000 | 232 | – |
| semi-synthetic p300 HAT domain Y1394F (protein) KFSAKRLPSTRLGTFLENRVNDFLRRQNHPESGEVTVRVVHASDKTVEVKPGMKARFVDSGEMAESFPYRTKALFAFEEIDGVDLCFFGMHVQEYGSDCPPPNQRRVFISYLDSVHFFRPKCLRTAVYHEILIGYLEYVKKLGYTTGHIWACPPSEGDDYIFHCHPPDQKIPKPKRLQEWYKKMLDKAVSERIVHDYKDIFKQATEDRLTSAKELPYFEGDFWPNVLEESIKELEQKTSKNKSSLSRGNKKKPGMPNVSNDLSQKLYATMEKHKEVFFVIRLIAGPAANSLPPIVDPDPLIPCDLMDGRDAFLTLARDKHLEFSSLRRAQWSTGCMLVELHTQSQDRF | 136 µM | – | – |
| semi-synthetic p300 HAT domain H1434A (protein) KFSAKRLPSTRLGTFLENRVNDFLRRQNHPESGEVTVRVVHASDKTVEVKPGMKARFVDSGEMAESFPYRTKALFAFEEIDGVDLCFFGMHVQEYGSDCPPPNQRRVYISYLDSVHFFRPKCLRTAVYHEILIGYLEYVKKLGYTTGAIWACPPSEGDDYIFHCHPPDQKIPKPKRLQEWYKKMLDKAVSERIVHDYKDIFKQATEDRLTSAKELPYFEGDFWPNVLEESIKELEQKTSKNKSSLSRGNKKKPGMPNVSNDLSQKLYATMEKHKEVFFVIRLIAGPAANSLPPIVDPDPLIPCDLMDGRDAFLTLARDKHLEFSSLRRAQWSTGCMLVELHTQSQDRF | 151 µM | – | – |
| semi-synthetic p300 HAT domain Y1467F (protein) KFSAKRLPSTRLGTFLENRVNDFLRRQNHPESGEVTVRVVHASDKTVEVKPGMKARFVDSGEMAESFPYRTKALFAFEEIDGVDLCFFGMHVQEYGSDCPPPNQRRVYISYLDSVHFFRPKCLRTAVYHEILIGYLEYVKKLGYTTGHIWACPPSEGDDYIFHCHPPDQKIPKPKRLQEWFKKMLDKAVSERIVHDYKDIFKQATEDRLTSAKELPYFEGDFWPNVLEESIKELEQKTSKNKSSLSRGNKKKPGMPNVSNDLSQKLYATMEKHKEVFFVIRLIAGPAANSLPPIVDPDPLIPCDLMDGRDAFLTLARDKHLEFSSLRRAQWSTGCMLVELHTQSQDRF | 520 µM | – | – |
| semi-synthetic p300 HAT domain R1410K (protein) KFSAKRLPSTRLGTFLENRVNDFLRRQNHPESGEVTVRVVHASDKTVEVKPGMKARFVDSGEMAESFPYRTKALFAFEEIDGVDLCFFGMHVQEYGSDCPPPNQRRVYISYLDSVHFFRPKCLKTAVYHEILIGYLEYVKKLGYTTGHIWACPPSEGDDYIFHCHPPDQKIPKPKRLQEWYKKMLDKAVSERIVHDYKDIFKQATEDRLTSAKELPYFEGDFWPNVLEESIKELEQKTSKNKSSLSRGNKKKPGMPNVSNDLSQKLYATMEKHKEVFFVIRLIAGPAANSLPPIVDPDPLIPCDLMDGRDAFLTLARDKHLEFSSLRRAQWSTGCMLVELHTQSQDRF | 156 µM | – | – |
| semi-synthetic p300 HAT domain R1410A (protein) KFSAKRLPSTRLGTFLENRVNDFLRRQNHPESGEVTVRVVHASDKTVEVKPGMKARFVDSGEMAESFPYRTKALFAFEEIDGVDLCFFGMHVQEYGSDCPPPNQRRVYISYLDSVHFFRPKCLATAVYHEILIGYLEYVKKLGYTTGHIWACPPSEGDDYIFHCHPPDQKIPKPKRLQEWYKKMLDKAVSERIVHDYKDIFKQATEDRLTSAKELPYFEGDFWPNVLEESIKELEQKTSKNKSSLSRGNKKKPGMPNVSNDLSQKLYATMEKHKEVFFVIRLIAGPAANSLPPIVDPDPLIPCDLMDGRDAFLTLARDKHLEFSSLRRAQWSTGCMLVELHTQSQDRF | 190 µM | – | – |
| semi-synthetic p300 HAT domain W1436A (protein) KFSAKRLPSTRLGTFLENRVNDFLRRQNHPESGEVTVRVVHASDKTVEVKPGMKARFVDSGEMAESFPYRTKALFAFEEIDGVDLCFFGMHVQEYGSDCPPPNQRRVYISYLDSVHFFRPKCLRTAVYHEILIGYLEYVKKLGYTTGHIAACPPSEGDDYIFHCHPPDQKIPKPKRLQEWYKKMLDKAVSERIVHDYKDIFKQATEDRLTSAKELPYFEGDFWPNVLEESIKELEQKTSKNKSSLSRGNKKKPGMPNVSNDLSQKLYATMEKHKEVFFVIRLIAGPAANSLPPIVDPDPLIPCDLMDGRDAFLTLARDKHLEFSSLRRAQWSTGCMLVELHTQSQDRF | 394 µM | – | – |
| semi-synthetic p300 HAT domain T1357L (protein) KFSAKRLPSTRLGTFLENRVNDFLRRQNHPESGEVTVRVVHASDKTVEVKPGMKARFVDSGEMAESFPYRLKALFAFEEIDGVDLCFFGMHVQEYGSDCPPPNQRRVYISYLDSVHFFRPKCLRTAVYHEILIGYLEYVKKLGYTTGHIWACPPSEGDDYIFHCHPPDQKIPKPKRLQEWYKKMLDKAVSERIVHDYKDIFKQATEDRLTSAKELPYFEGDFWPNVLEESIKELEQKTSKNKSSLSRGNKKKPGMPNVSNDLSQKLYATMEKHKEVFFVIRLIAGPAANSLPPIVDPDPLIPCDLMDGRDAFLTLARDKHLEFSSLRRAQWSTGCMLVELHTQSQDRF | 111 µM | 18700 | – |
| semi-synthetic p300 HAT domain S1396R/Y1397R double mutant (protein) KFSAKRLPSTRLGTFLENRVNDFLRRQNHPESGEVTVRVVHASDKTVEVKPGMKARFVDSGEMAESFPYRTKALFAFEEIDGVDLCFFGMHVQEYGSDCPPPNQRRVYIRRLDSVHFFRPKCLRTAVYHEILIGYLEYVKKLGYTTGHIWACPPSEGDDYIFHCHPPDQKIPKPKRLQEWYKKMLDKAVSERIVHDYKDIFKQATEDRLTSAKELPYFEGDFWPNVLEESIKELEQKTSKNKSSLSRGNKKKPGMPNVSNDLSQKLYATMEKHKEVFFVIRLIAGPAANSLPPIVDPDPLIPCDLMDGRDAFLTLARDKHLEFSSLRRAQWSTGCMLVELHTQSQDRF | – | – | decrease of p300 HAT activity against wild-type [1]: severely decreased p300 HAT activity (>50-fold) |
| semi-synthetic p300 HAT domain T1357R (protein) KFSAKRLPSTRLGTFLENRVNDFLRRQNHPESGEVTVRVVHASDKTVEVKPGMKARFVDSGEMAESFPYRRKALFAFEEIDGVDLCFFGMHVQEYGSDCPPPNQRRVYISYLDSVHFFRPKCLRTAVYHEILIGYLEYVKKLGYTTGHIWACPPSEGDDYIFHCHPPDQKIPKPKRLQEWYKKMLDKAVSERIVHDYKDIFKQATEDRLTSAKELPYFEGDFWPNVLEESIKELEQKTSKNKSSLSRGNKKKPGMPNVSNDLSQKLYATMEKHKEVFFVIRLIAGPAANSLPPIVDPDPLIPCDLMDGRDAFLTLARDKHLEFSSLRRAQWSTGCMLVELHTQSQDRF | 294 µM | 13200 | – |
| semi-synthetic p300 HAT domain D1625R (protein) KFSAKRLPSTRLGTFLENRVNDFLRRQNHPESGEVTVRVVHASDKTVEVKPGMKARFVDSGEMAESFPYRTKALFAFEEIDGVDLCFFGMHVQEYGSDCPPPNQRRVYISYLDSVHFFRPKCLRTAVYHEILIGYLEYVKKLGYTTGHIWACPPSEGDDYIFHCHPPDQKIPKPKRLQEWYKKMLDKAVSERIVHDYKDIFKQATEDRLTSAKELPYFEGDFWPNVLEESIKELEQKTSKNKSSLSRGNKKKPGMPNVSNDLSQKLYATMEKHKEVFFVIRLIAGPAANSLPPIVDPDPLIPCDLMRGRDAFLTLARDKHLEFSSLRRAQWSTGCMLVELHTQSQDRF | 640 µM | 5670 | V/K decrease against wild-type [1]: a V/K decrease of about 5-fold |
| semi-synthetic p300 HAT domain D1628R (protein) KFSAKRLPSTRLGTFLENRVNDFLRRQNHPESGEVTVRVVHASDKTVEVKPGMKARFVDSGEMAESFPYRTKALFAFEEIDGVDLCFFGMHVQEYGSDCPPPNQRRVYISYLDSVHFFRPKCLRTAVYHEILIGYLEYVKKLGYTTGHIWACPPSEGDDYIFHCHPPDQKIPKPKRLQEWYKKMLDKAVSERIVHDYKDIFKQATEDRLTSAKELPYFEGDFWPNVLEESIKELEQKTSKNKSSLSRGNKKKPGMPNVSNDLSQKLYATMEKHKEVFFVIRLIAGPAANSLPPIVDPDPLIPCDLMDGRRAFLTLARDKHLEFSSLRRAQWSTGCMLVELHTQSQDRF | >1000 | 2100 | V/K decrease against wild-type [1]: V/K was decreased by 12-fold |
